Columns and labels:
insulin = assay: Plasma insulin after acute oral dosing in rats, Rat Insulin ELISA; type: in vivo; conditions: Rat Insulin ELISA kit; oral gavage
Description: Animals were treated and acutely dosed with various test articles as part of pharmacokinetic rodent experiments according to methods described herein. Unless otherwise stated all dosing was at 2.85 g/kg body weight. All treatment groups except for SEQID-00240 which had n=5 rats, and SEQID-00587 which had n=3, contained n=4 rats.
An Ultra-Sensitive Rat Insulin ELISA Kit was obtained from Crystal Chem, Inc. (Catalog number 90060, Downers Grove, IL). Plates were washed using a BioTek ELx50 microplate strip washer (BioTek, Winooski, VT). Absorbance was read on a Synergy Mx monochromator-based microplate reader (BioTek, Winooski, VT). Data was analyzed using Microsoft Excel version 14.0.7128.5000 (Microsoft Corporation, Redmond, WA) and GraphPad Prism version 6.03 for Windows (GraphPad Software, La Jolla, CA).
The ELISA kit was pre-warmed to room temperature for 30 minutes prior to beginning the assay set up. The standard curve dilutions were prepared in accordance with the manufacturer's instructions for running the assay in Wide Range format. […]
Anti-Insulin Enzyme Conjugate Working Solution was prepared by combining 2 volumes Anti-Insulin Enzyme Conjugate Stock with 1 volume Enzyme Conjugate Diluent, and mixing by pipetting up and down and gently vortexing. […] The absorbance was read on the Synergy Mx plate reader at 450 nm and 630 nm. […]

[1] = pH solubility screen in Citric Acid / Dibasic Sodium Phosphate buffers; type: physicochemical
Description: pH Solubility. […] Protein was either lyophilized and then resuspended in buffer cocktail mixtures, or concentrated and then spiked into buffer cocktail mixtures at a final protein concentration of 5 to 30 mg/ml. As a control, protein was also dissolved in a solution of 8 M urea. Protein solutions were shaken for 10 min at room temperature. Turbidity of proteins was determined by measuring the absorbance of protein solutions at 650 nm. The protein solution was then centrifuged for 10 min at 1100×g to pellet undissolved or precipitated protein. The soluble protein fraction (supernatant) was sampled and protein concentration was measured by one or more of the following methods: Coomassie Plus Protein Assay (Pierce), Chip electrophoresis, gel electrophoresis, and/or absorbance at 280 nm. The pH range over which select proteins remained greater than 80% soluble as determined by Bradford and the A650 value are listed in Table E31C.

[2] = Intact half-life during simulated gastric fluid (SGF) digestion; conditions: SGF pH 1.5, pepsin:polypeptide 1:20 w/w, 37° C.; produced in E. coli unless otherwise noted
[3] = Solubility of proteins (lyophilized/reconstituted or ultrafiltered); conditions: produced in E. coli unless otherwise noted

In the case of “SEQID-00240: nutritive polypeptide naturally produced in Cow, recombinantly expressed in E. coli (DLEGSLEQEKKLRMDLERAKRKLEGDLKLAQESTMDIENDKQQLDEKLKK; listed as Bos taurus)”, the “plasma insulin concentration vs time 0” value (insulin) is reported as “statistically significant increase in plasma insulin at 15 and 30 minutes post gavage compared to time 0”, the “pH Range where Protein is >80% detected as Soluble and A650 <1 OD: Low” value ([1]; lower pH of range) is reported as 6.6 and the “pH Range where Protein is >80% detected as Soluble and A650 <1 OD: High” value ([1]; upper pH of range) is reported as 9.1. For the same substance, the “SGF Half-life (t½)” value [2] was 42 s and the “Solubility” value [3] was 163 mg/mL.
